The target of this assay is Anthrol reductase CbAR from Cercospora sp. JNU001 (Cercospora sp. JNU001). In words: SEC; purified CbAR on gel filtration (Supplementary Fig. 1b, c); the column of the purification was Hiload 16/600 Superdex 200 pg in 25 mM Tris-HCl pH 8.0, 150 mM NaCl. In general terms: Size exclusion chromatography separates by hydrodynamic size, large species first.

Turning to “Anthrol reductase CbAR from Cercospora sp. JNU001 (enzyme)”, the stoichiometry N is 2.

As usually defined, the stoichiometry N is a count of units in the complex or per binding partner.

For the origin of these results see PMC9867772.
